Data as given in patent US20210238262A1 (HENRY M JACKSON FOUNDATION FOR THE ADVANCEMENT OF MILITARY …, published 2021).

Columns and labels:
[1] = target: T1, Recombinant DENV-2 sE (1-396) from strain 16681-PDK53 with C-terminal AviTag and poly-histidine tags (Dengue virus serotype 2 strain …, UniProt P29991 281-676, biotinylated on the AviTag for BLI); experiment: BLI and ELISA on DENV-2 E glycoprotein
T1 construct: Produced in Expi293F cells; biotinylated for BLI; also called DENV-2 E

[2] = target: T1, Recombinant DENV-2 sE (1-396) from …; experiment: ELISA on DENV-2 E
[3] = target: Whole purified ZIKV (ZIKV/Brazil/2015) virions (Zika virus, ZIKV/Brazil/2015); experiment: cell-based or functional assay
DENV-2 (S16803) virus = DENV-2 (S16803) virus (Dengue virus serotype 2 strain S16803); experiment: cell-based or functional assay
[4] = target: ZIKV PR (Puerto Rican strain, PRVABC59) virus (Zika virus strain PRVABC59); experiment: cell-based or functional assay
[5] = target: ZIKV H/PF/2013 reporter virus particle with E mutant (D67N, A69T) (Zika virus strain H/PF/2013); experiment: cell-based or functional assay

B1: rhMZ123-A (antibody, V domains shown)
VH: QLVQSGAEVKRPGESLRISCKTSGYSFTSYWISWVRQMPGKGLEWMGMIYPGDSDTRYSPSFQGQVTISADKSISTAYLQWSSLKASDTATYYCAKVDSSGWTNYFDYWGQGVLVTVSS
VL: QSALTQPPSVSKSLGQSVTISCTGTSSDIGGYNGVSWYQQHSGTAPRLLIYDVSKRPSGVSDRFSGSKSGNTASLTISGLQAEDEADYYCCSYRSGSTYIFGAGTRLTVLG
binding result [1]: no binding

B2: rhMZ124-D (antibody, V domains shown)
VH: QVQLQESGPGLVKPSETLSLTCAVSGDSISSGYYWGWIRQSPGRGLESFGFISGSGGTTYYNPSLKTRVTISKDTSKNQFSLKLSSVTAADTAVYYCARLGHPRGIAAGGVDYWGQGVLVTVSS
VL: QSALTQPPSLSASPGASARLPCTLSSDFSVGNKNMYWYQQKPGSAPGLFLYFYSDSDNQLGPGVPNRVSGSKEASSNTAFLLISGLQPEDEADYYCQVYDRAANILFGGGTRLTVLG
binding result [1]: no binding

B3: MZ4 (antibody, V domains shown)
VH: QVHLQESGPGLVRPSETLSLTCTVSDGSISSYYWSWIRQPPGKGLEWIGSIYYTGSTNYNPSLKSRVTMSVDTSKNQFSLRLNSVTAADTAMYYCAGLDRYSWNEGGDHWGQGILVSVSS
VL: QPVLTQPPSASGTPGQRVSISCSGSRSNLGKNTVNWYQQLPGTAPKLLIYNHSRRPSGVPERFSGSKSGTSASLAISGLQSEDEADYFCAAWDDSLNGLYVFGTGTKVTVLR
notes: also called MHRP ZIKV-1004
binding result [2]: binds
flow-based neutralization assay using human monocytes (FlowNT), IC50 [3]: 8.3 ng/mL
flow-based neutralization assay using human monocytes (FlowNT), IC50 (DENV-2 (S16803) virus): 20.9 ng/mL

B4: MZ1 (antibody, V domains shown)
VH: QVQLQESGPGLVKSSETLSLSCTVSGASISNFYWSWVRQPPGKGLEWMGSIYYTGTITYNPSLKSRLTMSVDTSKNQFSLKLNSVTAADTAVYSCAGLDRFNWNDEGDCWGQGTLVTVFS
VL: QSVLTQPPSASGTPGQRVTISCSGSRSNLGRNTVNWYQQLPGVAPKLLIYSNNRRPSGVPDRFSGSKSDTSASLAISGLQSEDEADYFCAAWDDSLNGLYVFGTGTKVTVLG
binding result [2]: binds

B5: rhMZ100-C (antibody, V domains shown)
VH: EVQLVESGGGLVQPGGSLRLSCAASGFTFSSDGMSWVRQAPGKGLEWVSYISSGGATTYYADSVKGRFTISRDNSKNTLSLQMNSLRGEDTAVYYCAKDITAPGRNGLDSWGQGVVVTVSS
VL: QSVLTQPPSLSASPGASARLPCTLSSDLNVGTKNMYWYQQKPGSAPRLFLYYYSDSDKQLGPGVPNRVSGSKETSSNTAFLLISGLQPEDEADYYCQVYDNSARVFGGGTRLTVLG
FlowNT50 neutralization, IC50 [3]: 1 to 3 µg/mL
binding result [1]: no binding

B6: rhMZ134-B (antibody, V domains shown)
VH: EVQLVESGGGLAKPGGSLRLSCAASGFTFSDYYMDWVRQAPGKGLEWVSRISNGGGSTWYADSVKGRFTISRENAKNTLYLQMNSLRAEDTAVYYCARGPEYCSSTYCSSAYCTGSGCYVDYGLDSWGQGVVVTVSS
VL: SYELTQPPSVSVSPGQMARITCGGDNIGSKNVQWYQQKPAQAPVLVIYADSERPSGIPERFSGSNSGNTATLTISGVEAGDEADYYCQVWDSSSDHVLFGGGTRLTVLG
FlowNT50 neutralization, U937-DC-SIGN cells, IC50 [3]: 22 ng/mL
micro-neutralization (MN50) in Vero cells, IC50 [4]: 3.8 ng/mL
neutralization in the reporter virus particle (RVP) assay, mutant against wild-type ZIKV H/PF/2013 [5]: 10 fold
binding result [1]: no binding

B7: rhMZ121-A (antibody, V domains shown)
VH: QVQLQESGPGLVKPSETLSLTCAVSGYSISSGYYWGWIRQPPGKGLEYIGYISGSSGSTYYNPSLKSRVTISKDTSKNQFSLKLSSVTAADTAVYYCARGNYYSGSYYLFWGQGVLVTVSS
VL: SYELTQPPSVSVSPGQTARITCGGDNLGSKYVHWYQQKPAQAPVLVIYYDSDRPSGIPERFSGSKSGNTATLTISGVEAGDEADYYCQVWDSSSDHWVFGGGTRLTVLG
binding result [1]: no binding

B8: MZ54 (antibody, V domains shown)
VH: EVQLVESGGGLVKPGGSLRLSCSASGFNFRDFYMGWVRQAPGKGLQWVSHIGDSGGAIYYTDSVEGRFSISRDNAKNSLYLQMNSLRVEDTAIYYCVCAGGGRTDYWGQGTLVTVSS
VL: DIVMTQSPSSLSASVGDRVTITCQATQDINIYLNWYQQKPGQAPKLLIYDASRLETGVPSRFSGRGSGTDFTFTISSLQPEDFGTYYCQHYYTVPRTFGQGTKVESRR
binding result [2]: binds

B9: MZ20 (antibody, V domains shown)
VH: EVQVVESGGGLVKPGGSLRLSCAASGFTFSHFYMTWIRQAPGKGLESISYIGGTGSPTYYADSVVGRFTISRDNAKNSVYLEMNSLRAEDTAIYYCVRAGGARIENWGQGTLVIVSS
VL: DIVMTQSPSSLSASVGDRVTITCQASHDINIYLNWYQQRPGKAPKLLIYDASRLETGVPSRFSGTGSGTDFTFTISNLQPEDFATYFCQHYYTLPRTFGQGTKVDIKR
binding result [2]: binds

B10: rhMZ133-C (antibody, V domains shown)
VH: EVQLVESGGGLVQPGGSLRLSCAASGFTFSDYYMSWVRQAPGKGPEWVGFIRNKANGGTAEYAASVKGRFTVSRDDSKSIASLQMNSLKTEDTAVYYCAKHYCTGSGCYGAGLDSWGQGVVVTVSS
VL: QSVLTQPPSVSKSLGQSVTISCTGTSSDIGGSNDVSWYQQHPGTAPRLLIYNVSKRPSGVSDRFSGSKSGNTASLTISGLQAEDEADYYCCSYRSGSTLFGGGTRLTVLG
neutralization in the reporter virus particle (RVP) assay, mutant against wild-type ZIKV H/PF/2013 [5]: 2 fold
binding result [1]: no binding

B11: rhMZ107-B (antibody, V domains shown)
VH: QVQLQESGPGLVKPSETLSLTCAVSGYSISSGYYWGWIRQPPGKGLEYIGYISGSSGSTYYNPSLKSRVTISKDTSKNQFSLKLSSVTAADTAVYYCARRDRVGSYPYYYGLDSWGQGVLVTVSS
VL: QSVLTQPPSLSASPGASARLPCTLSSDLSVGSKNMYWYQQKPGSAPRLFLYYYSDSDKQLGPGVPNRVSGSKETSSNTAFLLISGLQPEDEADYYCQVYDGSANDVFGSGTKLTVLG
FlowNT50 neutralization, IC50 [3]: 1 to 3 µg/mL
binding result [1]: no binding

B12: rhMZ101-B (antibody, V domains shown)
VH: EVQLVESGGGLAKPGGSLRLSCAASGFSFSDYYMYWVRQAPGKGLEWVSGISYTGGSTYYADSVKGRFTISRENAKNTLYLQMDSLRAEDTAVYYCARVLYSGSYYYFDYWGQGVLVTVSS
VL: QSVLTQPPSLSASPGASARLPCTLSSDLSVGSKNMYWYQQKPGSAPRLFLYYYSDSDKQLGPGVPNRVSGSKETSSNTAFLVISGLQPEDEADYYCQVYDSSANIVFGSGTKLTVLG
binding result [1]: no binding

B13: rhMZ104-D (antibody, V domains shown)
VH: EVQLVESGGGLAKPGGSLRLSCAASGFTFSDYYMDWVRQAPGKGLEWVSRISNGGGSTWYADSVKGRFTISRENAKNTLYLQMNSLRAEDTAVYYCARERYCSGGVCYAGTKYFDYWGQGVLVTVSS
VL: QPVLTQPPSLSASPGASARLPCTLSSDLSVGSKNMYWYQQKPGSAPRLFLYYYSDSDKQLGPGVPNRVSGSKETSSNTAFLLISGLQPEDEADYYCQVYDSSANWVFGGGTRLTVLG
binding result [1]: no binding

B14: rhMZ103-A (antibody, V domains shown)
VH: QVQLQESGPGLVKPSETLSLTCAVSGGSISGGYDWSWIRQPPGKGLEWIGYIYGSSGSTNYNPSLKNRVTISKDTSKNQFSLKLSSVTAADTAVYYCARPAYYEDDYGYYYTTPIFDYWGQGVLVTVSS
VL: QSVLTQPPSASGAPGQSVTISCSGSSSNIGSNYVYWYQQLPGTAPKLLIYYSNQRPSGVPDRFSGSKSGTSASLAITGLRSEDEADYYCAAWDNSLSSVLFGGGTRLTVLG
FlowNT50 neutralization, IC50 [3]: 1 to 3 µg/mL
neutralization in the reporter virus particle (RVP) assay, mutant against wild-type ZIKV H/PF/2013 [5]: 5 fold
binding result [1]: no binding

B15: rhMZ119-D (antibody, V domains shown)
VH: EVQLVQSGAEVKRPGESLKISCKTSGYSFTSYWISWVRQMPGKGLEWMGAIDPSDSDTRYSPSFQGQVTISADKSISTAYLQWSSLKASDSATYYCAKEGIAARSLDVWGRGVLVTVSS
VL: SYELTQPPSVSVSPGQTARITCSGDALPKKYAYWFQQKPGQSPVLIIYEDSKRPSGIPERFSGSSSGTVATLTISGAQVEDEADYYCYSTDSSGYHGLFGGGTRLTVLG
FlowNT50 neutralization, U937-DC-SIGN cells, IC50 [3]: 31 ng/mL
binding result [1]: no binding

B16: MZ56 (antibody, V domains shown)
VH: EVQLVESGGDLVQPGGSLRLSCAASGFTFSNYAMHWVRQAPGKGLESVSAIGSNGDSIFYASSVKGRFTISRDNSKNTLYLQMGSLRADDMAVYFCARGWYYYDSRAYWYFDLWGRGTLVTVSS
VL: QPVLTQPASVSGSPGQSITISCTGTTSDVDDYNHVSWYQQYPGKAPRVMLYDVTKRPSGVPDRFSGSKSGNTASLTISGLQSEDEADYYCCSFADSHAIFGGGTKVTVLG
binding result [2]: binds
